Test [1] addresses T1, human EGFRvIII, purified recombinant protein (Acro Biosystems Cat #EGI-H52H4) (human, UniProt P00533 25-645).
T1 construct: Bought protein; the deletion must be applied; also called truncated human EGFRvIII; huEGFRvIII
In words: ELISA, antigen coated at 1 ug/mL, anti-human IgG-HRP, n=3. For orientation: An ELISA detects its analyte on a solid surface through an enzyme-linked reagent.

The target of test [2] is T2, human EGFRvIII overexpressed on cells (F98npEGFRvIII, U87MG-EGFRvIII, FaDu-EGFRvIII) (human, UniProt P00533 25-1210). Briefly: cell-based or functional assay.
Test [3] addresses T3, human EGFR, purified recombinant protein (Acro Biosystems Cat #EGR-H5222) (human, UniProt P00533 25-645).
T3 construct: Bought protein; also called EGFR1; full length human EGFR1
Briefly: SPR (Carterra LSA), antibody captured on anti-human IgG, EGFR1 injected in a 5-fold series from 500 nM.

Test [4] addresses T1, human EGFRvIII, purified recombinant …. Briefly: SPR (Carterra LSA), antibody captured on anti-human IgG, antigen injected, 1:1 Langmuir fit.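 Also: EGFRvIII injected at five concentrations, fivefold serial dilution starting 500 nM, 5 min association then 15 min dissociation, double-referenced against interspot and buffer blank signals, global kinetic fit.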
Test [5] concerns the target T2, human EGFRvIII overexpressed on cells …. Briefly: flow cytometry, U87MG-EGFRvIII cells, n=3. For orientation: A flow cytometer gives signals particle by particle.
Test [6] addresses T4, wild type human EGFR1 on cells (F98 EGFR1; wild type U87MG; wild type FaDu) (human, UniProt P00533 25-1210).
T4 construct: whole, on cells
Briefly: flow cytometry on wild type U87MG cells, anti-human IgG Fc Alexa Fluor 647, MFI.

Test [7] concerns the target T2, human EGFRvIII overexpressed on cells …. In words: cell-based or functional assay. The source holds these as a separate data set.
Test [8] has the same target. Briefly: flow cytometry, FaDu-EGFRvIII cells, n=3.
Test [9] concerns the target T3, human EGFR, purified recombinant …. In words: ELISA, plate coated with human EGFR1, anti-human IgG-HRP, OD450.

The values below come from patent publication US20240117056A1 (IBIO, published 2024).

Changes are numbered by the printed parent chain.

B1: SD-127612-afuc (antibody, V domains shown)
VH: QVQLVQSGAEVKKPGASVKVSCKASGYTFTSYDINWVRQAPGQRLEWMGWIFPGDGTSKYNEKFKGRVTITRDTSASTAYMELSSLRSEDTAVYYCARRLGSHWGQGTLVTVSS
VL: DIVLTQSPDSLAVSPGERATISCKASQSVDSDGDSYMNWYQQKPGQPPKLLIYGASNLESGVPDRFSGSGSGTDFTLTISRVEAEDVAVYYCQQSHEYPFTFGGGTKLEIK
notes: afucosylated (FUT8 knock-out CHO)
A word on the EC50: it is the concentration that produces a half-maximal response. As a reminder, the Kd is the concentration at which binding is half-saturated. The koff is a measure of how fast the partners let go of each other. One may read the kon as a measure of how fast the partners come together. Consider B1, for which the half-maximal effective concentration (EC50) in test [1] worked out at 0.156 nM; in test [5] it was 6.05 nM; in [8], 5.27 nM. In [2], the “ADCC EC50 (nM), FaDu-EGFRvIII cells with PBMC” value came to 0.0051 nM. The binding result in test [3] and in [6] was “no binding” in each case. Also, the Kd in test [4] came to 57 nM. Further, the off-rate (koff) in test [4] amounted to 0.0024 s⁻¹. In addition, in [4], the kon came to 42000 M⁻¹ s⁻¹. The “ADCC EC50 (nM), U87MG-EGFRvIII cells with PBMC” value in test [7] amounted to 0.0047 nM.

B2: SD-649072-afuc (antibody, V domains shown)
VH: B1 VH with S102T, H103V
VL: B1 VL with D9A, E17Q, S22T, D64A, S80N, R81P, E85N, V87T, V89N, G104Q
notes: as for B1
As to B2, the binding result in [9] and in test [6] was “no binding” in each case. The concentration giving a half-maximal response (EC50) in test [1] came out at 0.129 nM; in test [5], 4.33 nM; in [8] it was 3.86 nM. Further, the “ADCC EC50 (nM), FaDu-EGFRvIII cells with PBMC” value in test [2] was 0.0033 nM. Also, the dissociation constant (Kd) in test [4] was found to be 33 nM. Further, in [4], the koff was 0.0017 s⁻¹. Moreover, the on-rate constant (kon) in [4] was 51000 M⁻¹ s⁻¹. The “ADCC EC50 (nM), U87MG-EGFRvIII cells with PBMC” value in test [7] came to 0.0066 nM.
